Laboratory results from patent US20240132578A1.
“And” between values parts separate entries of the source, which are not always exact repeats. Equal values may be shown once.

What was measured:
Experiment in all cases: cell-based or functional assay
[1] = molecular target: HIV-1 JRCSF envelope glycoprotein (Env) on pseudovirus (HIV-1) (UniProt P20871)
[2] = molecular target: HIV-1 92RW020 envelope glycoprotein (Env) on pseudovirus (HIV-1)
[3] = molecular target: HIV-1 93IN905 envelope glycoprotein (Env) on pseudovirus (HIV-1)
[4] = molecular target: HIV-1 MGRM-C-028 envelope glycoprotein (Env) on pseudovirus (HIV-1)
[5] = molecular target: HIV-1 MGRM-C-026 envelope glycoprotein (Env) on pseudovirus (HIV-1)
[6] = molecular target: HIV-1 MGRM-C-027 envelope glycoprotein (Env) on pseudovirus (HIV-1)
[7] = molecular target: HIV-1 94UG103 envelope glycoprotein (Env) on pseudovirus (HIV-1)
[8] = molecular target: HIV-1 APV6 envelope glycoprotein (Env) on pseudovirus (HIV-1)
[9] = molecular target: HIV-1 NL43 envelope glycoprotein (Env) on pseudovirus (HIV-1)
[10] = molecular target: HIV-1 MGRM-A-010 envelope glycoprotein (Env) on pseudovirus (HIV-1)
[11] = molecular target: HIV-1 Env of pseudovirus MGRM-C-26 (HIV-1)
[12] = molecular target: HIV-1 Env of pseudovirus 92TH021 (HIV-1)
[13] = molecular target: HIV-1 Env of pseudovirus JRCSF (HIV-1) (UniProt P20871)
[14] = molecular target: HIV-1 Env of pseudovirus 94UG103 (HIV-1)
[15] = molecular target: HIV-1 Env of pseudovirus 92BR020 (HIV-1)
[16] = molecular target: HIV-1 APV13 envelope glycoprotein (Env) on pseudovirus (HIV-1)
[17] = molecular target: HIV-1 JRFL envelope glycoprotein (Env) on pseudovirus (HIV-1)
[18] = molecular target: HIV-1 93UG077 envelope glycoprotein (Env) on pseudovirus (HIV-1)
[19] = molecular target: HIV-1 APV17 envelope glycoprotein (Env) on pseudovirus (HIV-1)
[20] = molecular target: HIV-1 92BR020 envelope glycoprotein (Env) on pseudovirus (HIV-1)

PGT-136 monoclonal antibody (5329_C19; 5366_P21), sequence (VH): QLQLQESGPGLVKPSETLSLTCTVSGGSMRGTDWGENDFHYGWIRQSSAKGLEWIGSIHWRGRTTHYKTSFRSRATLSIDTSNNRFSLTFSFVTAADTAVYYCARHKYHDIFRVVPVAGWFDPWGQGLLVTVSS
PGT-136 monoclonal antibody (5329_C19; 5366_P21), sequence (VL): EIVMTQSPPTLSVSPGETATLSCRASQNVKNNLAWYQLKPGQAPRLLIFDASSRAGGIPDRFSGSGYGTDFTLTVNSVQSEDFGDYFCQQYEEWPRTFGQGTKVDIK

Row | Substance | IC50 neutralization [1] [µg/mL] | IC50 neutralization [2] [µg/mL] | IC50 neutralization [3] [µg/mL] | IC50 neutralization [4] [µg/mL] | IC50 neutralization [5] [µg/mL] | IC50 neutralization [6] [µg/mL] | IC50 neutralization [7] [µg/mL] | IC50 neutralization [8] [µg/mL] | IC50 neutralization [9] [µg/mL] | IC50 neutralization [10] [µg/mL] | Primary Neutralization Index (B cell culture supernatant) [11] | Primary Neutralization Index (B cell culture supernatant) [12] | Primary Neutralization Index (B cell culture supernatant) [13] | Primary Neutralization Index (B cell culture supernatant) [14] | Primary Neutralization Index (B cell culture supernatant) [15] | IC50 neutralization [16] [µg/mL] | IC50 neutralization [17] [µg/mL] | IC50 neutralization [18] [µg/mL] | IC50 neutralization [19] [µg/mL] | IC50 neutralization [20] [µg/mL]
1 | 1496_C09 (PG9) (TCN-109) monoclonal antibody | 0.0048 | 0.161 | 0.048 | 0.121 | 0.113 | 2.45 | 0.31 | 0.214 | 0.687 | 0.0375 |  |  |  |  |  |  |  |  |  | 
2 | Antibody of B cell culture well 5113_D22 (labelled PGT-132 in Table 26) |  |  |  |  |  |  |  |  |  |  | 6 | 51 | 3 |  |  |  |  |  |  | 
3 | Antibody of B cell culture well 5117_E22 (labelled PGT-133 in Table 26) |  |  |  |  |  |  |  |  |  |  | 3.4 | 42.5 | 3.6 |  |  |  |  |  |  | 
4 | PGT-121 (B cell culture wells 4838_L06 and 4873_E03) (antibody) |  |  |  |  |  |  |  |  |  |  | 996 and 371 |  | 3.2 and 2.2 | 1.4 and 0.8 | 4.9 and 3.6 |  |  |  |  | 
5 | PGT-121 monoclonal antibody (4838_L06; 4873_E03) |  |  |  |  |  |  |  |  | > 10 |  |  |  |  |  |  |  |  |  |  | 
6 | PGT-122 (B cell culture well 4877_D15) (antibody) |  |  |  |  |  |  |  |  |  |  | 37.5 |  | 2.3 | 1.3 | 5.4 |  |  |  |  | 
7 | PGT-122 monoclonal antibody (4877_D15) | 0.0727 | 0.0072 | 0.0138 | 2.06 | 0.0089 | 0.0388 | 1.46 | 0.0851 | > 10 | 1.68 |  |  |  |  |  | 0.992 | 0.0471 | 0.191 | 0.522 | 0.0337
8 | PGT-123 monoclonal antibody (4858_P08) | 0.0423 | 0.0038 | 0.0071 | 0.443 | 0.0031 | 0.0169 | 0.846 | 0.0328 | > 10 | 0.492 |  |  |  |  |  | 0.222 | 0.0283 | 0.0303 | 0.18 | 0.013
9 | PGT-125 monoclonal antibody (5123_A06) | 0.006 | 0.0028 | 0.0137 | 5.78 | 0.0106 | > 10 | 0.0124 | 0.0359 | > 10 | 0.0055 |  |  |  |  |  | 0.0128 | 0.0156 | 0.0262 | 7.31 | 0.0214
10 | PGT-126 monoclonal antibody (5141_B17) | 0.0061 | 0.0046 | 0.0194 | 0.283 | 0.0076 | 1.14 | 0.0091 | 0.0249 | > 10 | 0.0033 |  |  |  |  |  | 0.012 | 0.014 | 0.0256 | 0.501 | 0.0163
11 | PGT-130 monoclonal antibody (5147_N06) | 0.0089 | 0.014 | 0.0182 | > 10 | 0.0173 | 0.0052 | 0.635 | > 10 | > 10 | 0.0054 |  |  |  |  |  | 0.0345 | 0.0346 | > 10 | > 10 | 1.12
12 | PGT-135 monoclonal antibody (5343_B08; 5344_E16) | 0.113 | 0.157 | 0.0183 | 2.16 | 0.0123 | > 10 | > 10 | > 10 | 6.79 | > 10 |  |  |  |  |  | 0.545 | > 10 | > 10 | > 10 | 0.104
13 | PGT-136 monoclonal antibody (5329_C19; 5366_P21) | > 10 | 0.738 | 0.0135 | > 10 | 0.0065 | > 10 | > 10 | > 10 | > 10 | > 10 |  |  |  |  |  | > 10 | > 10 | > 10 | > 10 | > 10
